The results in this text go back to the supplement of paper PMC12042874.

± gives the uncertainty stated by the source.

The series is described as follows: amyloid nucleation score (Sup35N fusion, yeast selection) (log enrichment); library NNK2; higher = more nucleation; inactive = no reads after selection. The procedure, abridged:
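Random libraries were run with three technical output replicates. In each, psi-negative yeast expressing Sup35N fused to peptides of 20 random codons were induced 24 hours with 100 μM copper sulfate and grown 7 days at 30°C on medium lacking adenine and uracil, and input and output plasmid inserts were Illumina-sequenced. The nucleation score is the DiMSum log enrichment of output over input reads, centred on the mode score of non-aggregating sequences, and sequences under 100 input reads were excluded.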
SVHRERWMFYIFVCTLVVRG registered an amyloid nucleation score of 0.056 ± 0.43.

As for GYRSHSDNNICNVSGSHTYI, the amyloid nucleation score is 3.96 ± 0.065.

For the substance SLFWNISPLKWSLLIGRCSV, the amyloid nucleation score is -1.01 ± 0.78.

Turning to LRFVEPTTCVWGRDLFGAHS, the amyloid nucleation score is 0.545 ± 0.53.

In the case of SCHSFRFKPNGFVL, the amyloid nucleation score is -0.575 ± 0.49.

For the substance NGKNILD, the amyloid nucleation score entry is “inactive”.

In turn, CETLSGMRGLCRKKTDVPDI had an amyloid nucleation score of -0.036 ± 0.63.

For the substance RMNEACTWTLIVYFYRSLL, the amyloid nucleation score turned out to be 1.5 ± 0.12.

In turn, ELKFSINWHW showed an amyloid nucleation score of 4.4 ± 0.083.

Turning to REVIRGLCMYKARWIRVGVG, the amyloid nucleation score came to 0.947 ± 0.21.

For the substance FYSTVGSSFWTARQGISLQI, the amyloid nucleation score was found to be 1.05 ± 0.25.

The substance LMYFMNGL showed an amyloid nucleation score of 0.045 ± 0.63.

For PCVSMSVYILQLGPLGAWSR, the amyloid nucleation score turned out to be 7.454 ± 0.054.

STICFG displayed an amyloid nucleation score of -0.541 ± 1.

With LQKDYTSMH, the amyloid nucleation score result is “inactive”.

Regarding NMQFSSTFRYSGYYYLVEHW, the amyloid nucleation score stood at 1.59 ± 0.13.

In the case of FSYRYIEDWCTNVGDLDVKL, the amyloid nucleation score was -0.073 ± 0.26.

In turn, LMSMVCSESL returned an amyloid nucleation score of -0.555 ± 0.35.

In the case of LPVQAYAS, the amyloid nucleation score entry was “inactive”.

Substance INQHEPFPPGVVLKVHKTL registered an amyloid nucleation score of -0.021 ± 0.34.

CLYARHFVNCNGYATGTLMD displayed an amyloid nucleation score of -0.163 ± 0.61.

FRDVPGRECMRLRVYGMNLP yielded an amyloid nucleation score of 0.753 ± 0.21.

Regarding RCWWAYQ, the amyloid nucleation score is 1.11 ± 0.12.

Turning to GMGVYYVSSFSLRLWNGMTV, the amyloid nucleation score was found to be 1.65 ± 0.13.

In turn, VMSFTASA returned an amyloid nucleation score of 0.607 ± 0.51.

Consider KGCVLCNIFCRSKGVVGSTL, for which the amyloid nucleation score turned out to be 8.737 ± 0.035.

As to TMILVCRRAFKCYLTQDWSD, the amyloid nucleation score was 0.538 ± 0.3.

Take SWCCGCFLLCVPRTVSSFVR: the amyloid nucleation score was 0.167 ± 0.39.

The substance AYSVRLDLSCDQRCSF showed an amyloid nucleation score of 4.366 ± 0.041.

For the substance SRLSLIFDSIYLCS, the amyloid nucleation score was determined as 2.97 ± 0.15.

The substance TSNSII showed an amyloid nucleation score of -0.876 ± 0.49.

In turn, SEILWKTWNRFKPCFSRQYG returned an amyloid nucleation score of -0.675 ± 0.78.

The substance LLLKPMFRVIILMYARVCMY registered an amyloid nucleation score of -1.08 ± 1.1.

On to EFCIHVSVLINPRGSNYDKW, for which the amyloid nucleation score was -0.487 ± 1.1.

As for LVRPFWTLRYKTYHRSPVGR, the amyloid nucleation score was determined as 1.59 ± 0.15.

Regarding CWQMRGKLFHS, the amyloid nucleation score stood at 0.983 ± 0.14.

For FYRRNNSPYSFAVRCGVWFL, the amyloid nucleation score result is “inactive”.

As to SLLGV, the amyloid nucleation score is -1.3 ± 0.34.

NIFFVRCYFNVLYNGALCHS came in with an amyloid nucleation score of 7.025 ± 0.043.

The substance TWLSLSLYPFSKSYSISAGF had an amyloid nucleation score of -0.321 ± 1.

NNSAECRMSIKRSACGLQIA returned an amyloid nucleation score of 0.961 ± 0.37.

With FFAKCELVSWDFDKSLGSSM, the amyloid nucleation score was -0.437 ± 0.34.

Turning to SGIVG, the amyloid nucleation score was found to be 0.791 ± 0.57.

CERLDCSQKDSGCYWRRHGI returned an amyloid nucleation score of 0.471 ± 0.62.

FNTNRNEMCSML displayed an amyloid nucleation score of -0.476 ± 1.1.

In the case of FISGYLSETVMVLVDRRLRC, the amyloid nucleation score is -0.047 ± 1.1.

YKKGGLFDC yielded an amyloid nucleation score of -1.38 ± 0.39.

Take MLCKRPWVTLFRLSKCFTSD: the amyloid nucleation score amounted to 0.33 ± 0.56.

On to RSVFDLMPRLYDYATNHLSY, for which the amyloid nucleation score is -0.057 ± 0.34.

Substance SYFNVNWARFQVGYSLIVCL showed an amyloid nucleation score of 6.131 ± 0.04.

Take HSCRTYI: the amyloid nucleation score entry is “inactive”.

For the substance TALFGISMVCSGRG, the amyloid nucleation score is -0.583 ± 1.1.

YRSFSLCMCFYLYRSDDTLC gave an amyloid nucleation score of -1.69 ± 1.1.

Turning to STNVMLLSFSHMYHSYVLLG, the amyloid nucleation score was -0.261 ± 0.63.

Take GYGWKLQMTGGESCVGSHLR: the amyloid nucleation score was 0.388 ± 0.66.

With YNAWSSWYLGVLRPIGCCNG, the amyloid nucleation score came to 9.703 ± 0.046.

VLSRFLASKRNCPVPDSLG came in with an amyloid nucleation score of 0.093 ± 0.29.

Substance NVSVNAEVN displayed an amyloid nucleation score of -0.955 ± 0.54.

Turning to SMIYIGIFS, the amyloid nucleation score came to 5.281 ± 0.031.

As to WYGCMVIAQWGFYYENNTSW, the amyloid nucleation score result is “inactive”.

For FLYRVNAKWVWLRGLSLWQW, the amyloid nucleation score turned out to be 0.252 ± 0.23.

In turn, LSNRSYFTSTAWYEKNRPA had an amyloid nucleation score of -0.293 ± 0.26.

The substance SVVFKNSVWYSITNHNIMSL yielded an amyloid nucleation score of 1.57 ± 0.29.

HREWG showed an amyloid nucleation score of 0.668 ± 0.46.

In turn, GHSGTVSTQRVCPSSSLWYR gave an amyloid nucleation score of 0.462 ± 0.4.

The substance SNGYGRLAQLVGGWRDTKGG displayed an amyloid nucleation score of 0.398 ± 0.29.

For the substance DAGDVRQVKEAGLMAGS, the amyloid nucleation score amounted to 0.527 ± 0.21.

Take FGDLGLIVRDSKSLLGSIKQ: the amyloid nucleation score was 0.053 ± 0.79.

Consider RQVWLR, for which the amyloid nucleation score turned out to be 0.854 ± 0.32.

NSESYRCERY showed an amyloid nucleation score of -0.567 ± 0.49.

Regarding PINVRNYKRVCGGMVV, the amyloid nucleation score entry is “inactive”.

In turn, TSPRCYRFMIQSMYGLRTRV displayed an amyloid nucleation score of 0.883 ± 0.17.

Substance FIKRSAGNREANYNVTKENA showed an amyloid nucleation score of 0.816 ± 0.74.

With GNLWGYECVYINKQICGSSR, the amyloid nucleation score came out at 3.49 ± 0.05.

On to FISDVPHERLRLTFIF, for which the amyloid nucleation score was -1.41 ± 0.64.

VWTCIVFSR displayed an amyloid nucleation score of 6.22 ± 0.074.

PDSRPIVRRSANCIWSNSWF yielded an amyloid nucleation score of 1.38 ± 0.1.

HVHVNLYRTSGDIEHMSVQL: the amyloid nucleation score worked out at 8.391 ± 0.046.

Turning to GQACRMYTVSVFVILNLGYQ, the amyloid nucleation score was 2.53 ± 0.076.

On to QELYSDLPRPSGSPLQLWAK, for which the amyloid nucleation score is -0.246 ± 0.76.

In the case of RNRSKQDQWRNELSAGLHGV, the amyloid nucleation score was -0.359 ± 0.45.

On to FWPSQNYRHFLTHRGRRRRS, for which the amyloid nucleation score is 0.552 ± 0.66.

For ILYVCDTRELSGWGGRCYAW, the amyloid nucleation score worked out at 1.73 ± 0.56.

The substance DRVCGLPNVHSCVCYFAGRN came in with an amyloid nucleation score of 5.47 ± 0.076.

Turning to QPISVMSNLSEIIWTYSMRA, the amyloid nucleation score is -0.002 ± 0.63.

Substance VTTSTLMYWRGRTGALLAPS displayed an amyloid nucleation score of 1.84 ± 0.22.

FGLGVCNWIYGCKMDAFNSG: the amyloid nucleation score was 6.223 ± 0.039.

For the substance VLDSWRR, the amyloid nucleation score was -0.963 ± 1.1.

ILLFELNAPFVEYSNAFG registered an amyloid nucleation score of 3 ± 0.045.

In turn, KRVSASDISSLYADVRIKE displayed an amyloid nucleation score of -0.852 ± 0.76.

Consider VVFFNGACALATLAAVSLGP, for which the amyloid nucleation score came out at 6 ± 0.062.

As to VYLKIAGTVIDRFTAHVLLM, the amyloid nucleation score was -1.43 ± 0.75.

Regarding KIMYVSQECSGADLLGLYFF, the amyloid nucleation score was -0.747 ± 0.79.

For SSIGYVDYAEFEAGFFIYIV, the amyloid nucleation score was -0.823 ± 0.44.

IPDHFRTSSAYRLGDRHGG: the amyloid nucleation score was 0.103 ± 0.43.

On to SFLSKSWY, for which the amyloid nucleation score is 1.18 ± 0.17.

Regarding EHSWIKLCIEWMSKPIGARR, the amyloid nucleation score turned out to be 0.927 ± 0.32.

On to MKGAKGDNFCIMV, for which the amyloid nucleation score entry is “inactive”.

In the case of TSYTWDHCGGHIKSRYSGVG, the amyloid nucleation score entry was “inactive”.

TMKHPDMS came in with an amyloid nucleation score of -0.152 ± 0.55.

For DTNVCHIYFGFELLSRFFCN, the amyloid nucleation score is 0.252 ± 0.36.

For DHFYWSNLGG, the amyloid nucleation score result is “inactive”.

In turn, NTALSGDCVRCPSAYEWVKV gave an amyloid nucleation score of 3.25 ± 0.11.

DKGWLANDNLDKDLHQIPYA: the amyloid nucleation score came to 0.515 ± 0.35.

For the substance HASVHL, the amyloid nucleation score came out at 0.497 ± 0.34.

As to CITFS, the amyloid nucleation score is -0.817 ± 0.46.

Turning to VHVCVVACFACFSANSEKGG, the amyloid nucleation score turned out to be 10.79 ± 0.042.

In the case of RNFPMVFCAMV, the amyloid nucleation score entry is “inactive”.

Regarding IEHIRFTSSSAVVRRCGNC, the amyloid nucleation score amounted to 6.11 ± 0.066.

LRYNIMWKQHNATAYDEYRA gave an amyloid nucleation score of 3.65 ± 0.12.

The substance WDVKRIRKVSFDFVSRGWKG yielded an amyloid nucleation score of -0.293 ± 0.32.

FYSVNCFFFCHSIVILEKLF showed an amyloid nucleation score of 3.33 ± 0.15.

On to NVLWIDLSRVKVVDGNRSPE, for which the amyloid nucleation score came to 6.342 ± 0.061.

As for VYENKIA, the amyloid nucleation score was 0.313 ± 0.47.

For DVWWTYMYFKMSTVHAMSLF, the amyloid nucleation score was -0.113 ± 1.1.

Consider SQLFTVLSKS, for which the amyloid nucleation score is -0.062 ± 0.35.

The substance RIVQYIELRFTYQRKYNGAG showed an amyloid nucleation score of 3.02 ± 0.057.

Substance RFNFHTSD returned an amyloid nucleation score of -0.959 ± 1.1.

Consider IVLAYSKTPREVN, for which the amyloid nucleation score was -0.086 ± 0.65.

Regarding KSKRMVTMHKMNENTGLLGD, the amyloid nucleation score turned out to be 0.543 ± 0.5.

For AKDEERISNVVGLDCDLGVL, the amyloid nucleation score is 0.057 ± 0.42.

Substance DLKRTFR showed an amyloid nucleation score of -0.487 ± 0.79.

YPIVLRA: the amyloid nucleation score amounted to 1.01 ± 0.48.

HRVRIINCKKIWGNALWVRL returned an amyloid nucleation score of 1.15 ± 0.14.

Take VVSKDDRDGNV: the amyloid nucleation score is 3.14 ± 0.044.

As for FKGDVHANHFICQMLFAPFR, the amyloid nucleation score was determined as 8.596 ± 0.057.

Take SMLFRIRSLNVCSFAGLMRQ: the amyloid nucleation score was found to be 2.37 ± 0.1.

For the substance AVINPPKHVVCCFD, the amyloid nucleation score is -0.189 ± 0.23.

For the substance LYNYSSFLNTVGVGYEIFMR, the amyloid nucleation score is -0.105 ± 1.1.

FYNYRNDVIFVFLAHMPANY returned an amyloid nucleation score of 2.43 ± 0.13.

VVLTHY yielded an amyloid nucleation score of 0.386 ± 0.34.

For the substance FDKCLDKLMDKEKHALTFPQ, the amyloid nucleation score was -0.453 ± 1.1.

In turn, VGGGTECVLSRQEFGCWLLW gave an amyloid nucleation score of 0.649 ± 0.48.

On to SSRYSVIVVYMMGAPSLVGQ, for which the amyloid nucleation score result is “inactive”.

Substance YVMFRC displayed an amyloid nucleation score of 1.31 ± 0.32.

For the substance YIIGNVRNVRLWFRLSMNEV, the amyloid nucleation score entry is “inactive”.

On to IEGFRNDFLYVKISVGGAVV, for which the amyloid nucleation score result was “inactive”.

RWMLIAE returned an amyloid nucleation score of 1.03 ± 0.31.

Regarding RYPVESCVHSFLESRVRDQG, the amyloid nucleation score worked out at 0.881 ± 0.45.

Take WMGNLLGVRFMIKMIGYRAL: the amyloid nucleation score result was “inactive”.
